The results in this text go back to patent US20170052184A1 (published 2017).

The labels stand for the following.
T1: HCV Core1-169 (hepatitis C virus (HCV-1), UniProt P26664 1-169)
T1 sequence: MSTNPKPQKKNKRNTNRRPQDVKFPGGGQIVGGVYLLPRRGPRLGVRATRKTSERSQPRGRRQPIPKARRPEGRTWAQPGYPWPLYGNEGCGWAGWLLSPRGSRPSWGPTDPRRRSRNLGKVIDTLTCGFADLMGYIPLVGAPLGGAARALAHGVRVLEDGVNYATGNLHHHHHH

B1: HCV 208A-830 (antibody, V domains shown)
VH: EVRLQQPGPEVEKPGASVKISCKTSGYTFTEYAIHWVKQSHGESLEWIGGINPSNGDPIYNQIFKDKATLTVDRSSNTAYMGLRSLTVGDSGVYFCVRRQLDYFDFWGQGASLTVSS
VL: DIVLTQSPASLAVSLGQRATISCRSSQSVSTSRYSYLHWYQQKPGQPPKLLIKYASNLESGVPARFSGSGSGTDFTLNIHPVGEEDPATYYCQHSWEFPFTFGSGTKLEIKR
B2: HCV 208A-352 (antibody, V domains shown)
VH: QGQMQQSGAELVKPGASVKLSCKTSGFTFSSSFISWLKQKPGQSLEWIAWIYAGTGNTNYNQKFTDKAQLTVDTSSSTAYMQFSSLTTEDSAIYYCAISGTGFTYWGQGTLVTVSA
VL: DVLMAQTPLSLPVTLGDQASISCRSSQSLVHSNGNTYLEWFLQKPGQSPKLLIYNVSNRFSGVPDRFSGSGSGTDFTLKISRVEAEDLGVYYCFQGSHVPLTFGSGTKLEIKR
B3: HCV 208A-557 (antibody, V domains shown)
VH: B2 VH with F33Y, F83L
VL: B1 VL with V3A, S25A, L37M, K49E, P87T, E97D
B4: HCV 208B-281 (antibody, V domains shown)
VH: B2 VH with M4L, F33Y, K40R, N57G, T104I
VL: B2 VL with A5T, T14S, S32N, N55K, L101F
B5: HCV 208A-638 (antibody, V domains shown)
VH: QGQLQQPGAEFVKPGASLKLSCRASGYTFTSYWIHWVKQRPGQGLEWIGEVDPSDSYINQNEKFRGKATLTVDKSSSTAYMQLGSLTSEDSAVYYCARHYYGVLDSWGQGTALTVSS
VL: QIVLTQSPTIMSASLGERVTMTCTASSSVSSSYLHWFQQKPGSSPKLWIYSTSNLASGVPPRFSGSGSGTSYSLSISSVEAEDVATYYCLQFHRSPWTFGGGAKLEIKR
B6: HCV 208A-877 (antibody, V domains shown)
VH: QLQQSGPELVKPGASVKISCKTSGYTFTENAMHWVKQSRGKSLEWIGGVNPNNGDTVYTQKFKGKATLTVAKSSSTAYMELRTMTCEESTVYYCASREPDFFDYWGQGSSVTVSS
VL: QIVLTQSPAIMSVSPGEKVSMTCSASSSVTYMHWYQQKSGTSPKRWIYDTSELASGVPARFSGSGSGTTYSLTISSMEAEDAATYYCQQWSNKPLTFGAGTKLELKR

Where a chain is given by its changes, count along the chain named.

The first test deals with T1, HCV Core1-169. The experiment in a line: SPR sandwich, capture mAb C11-14.
B1 came in with an expected percent binding of 11.7%.
The same measure, in the same setting: with B2 the figure was not above 1%.
Consider B3, for which the expected percent binding was found to be 17.6%.
The same measure, in the same setting: as for B4, the figure is not above 1%.
The same measure, in the same setting: with B5 the figure was 13.3%; with B6, 10.7%.

The target in the next test is T2, HCV Core 134-171-TT Peptide (hepatitis C virus (HCV-1 numbering) …).
T2 construct: also called ALRZ-9 peptide
The experiment in a line: SPR, captured mAb, peptide analyte. Background: SPR reads the build-up and loss of mass on a sensor chip optically.
On to B1, for which the Kd (usually the free concentration of one partner at which half of the binding sites on the other are occupied at equilibrium, for simple one-to-one binding) is 160 pM; the koff (in general, the rate constant with which the complex falls apart) is 0.00054 s⁻¹; the kon (in general, the rate constant with which the complex forms) was 3.4e+06 M⁻¹ s⁻¹.
B2 returned a Kd of 520 pM, a koff of 5.4e-05 s⁻¹ and a kon of 100000 M⁻¹ s⁻¹.
For B3, in that order: 91 pM, 0.00021 s⁻¹ and 2.4e+06 M⁻¹ s⁻¹.
For B4, in that order: 96000 pM, 0.00025 s⁻¹ and 2200 M⁻¹ s⁻¹.
For B5, in that order: 200 pM, 0.00053 s⁻¹ and 2.7e+06 M⁻¹ s⁻¹.
On to B6, for which binding was put at a Kd of 2200 pM, the koff is 0.0024 s⁻¹ and the kon worked out at 1.1e+06 M⁻¹ s⁻¹.

Another test addresses T1, HCV Core1-169. The experiment in a line: SPR sandwich, capture mAb C11-9.
For B1, the expected percent binding stood at 7.9%.
B2 registered an expected percent binding not above 1%.
Same read-out and setting: with B3 the figure was 13.3%.
The same measure, in the same setting: as for B4, the figure is not above 1%; as for B5, 9.2%; as for B6, 5.9%.

In the next test the target is T1, HCV Core1-169. The experiment in a line: SPR sandwich, capture mAb C11-7.
B1 registered an expected percent binding of 14.7%.
In the case of B2, the expected percent binding is not above 1%.
Still for that read-out and setting: as for B3, the figure is 21.4%; as for B4, not above 1%; as for B5, 16.9%.
With B6, the expected percent binding was found to be 12.1%.

The target of the next test is T1, HCV Core1-169. As to the kind of experiment: SPR sandwich, capture mAb C11-3.
In the case of B1, the expected percent binding was 11.9%.
On the same count and under the same terms, with B2 the figure was not above 1%; with B3, 17.7%; with B4, not above 1%.
On the same count and under the same terms, as for B5, the figure is 14.1%; as for B6, 9.4%.
